From patent US6632626 (dated 2003)

Assays:
[1] = target: T1, rat brain farnesyl:protein transferase (rat, UniProt Q04631 2-377; Q02293 1-437); assay: cell-based or functional assay
[2] = target: T1, rat brain farnesyl:protein transferase; assay: cell-based or functional assay; remark: listed apart in the source

Binder	Concentration for 50% Inhibition (farnesyl transfer to p21^H-ras) [1]	concentration giving 50% inhibition (farnesyl transfer to p21^H-ras) [2]
CAIL	100 µM	
CVIE [CVIM with glutamic acid at the X position]		> 40 µM
CVIG [CVIM with glycine at the X position]		> 40 µM
CVIK [CVIM with lysine at the X position]		> 40 µM
